Values of other authors in paper PMC9133541.

Molecular target: ExoS peptide (Pseudomonas aeruginosa) (UniProt G3XDA1)
Test: ITC

UniProt G3XDA1, sequence (G3XDA1 whole entry): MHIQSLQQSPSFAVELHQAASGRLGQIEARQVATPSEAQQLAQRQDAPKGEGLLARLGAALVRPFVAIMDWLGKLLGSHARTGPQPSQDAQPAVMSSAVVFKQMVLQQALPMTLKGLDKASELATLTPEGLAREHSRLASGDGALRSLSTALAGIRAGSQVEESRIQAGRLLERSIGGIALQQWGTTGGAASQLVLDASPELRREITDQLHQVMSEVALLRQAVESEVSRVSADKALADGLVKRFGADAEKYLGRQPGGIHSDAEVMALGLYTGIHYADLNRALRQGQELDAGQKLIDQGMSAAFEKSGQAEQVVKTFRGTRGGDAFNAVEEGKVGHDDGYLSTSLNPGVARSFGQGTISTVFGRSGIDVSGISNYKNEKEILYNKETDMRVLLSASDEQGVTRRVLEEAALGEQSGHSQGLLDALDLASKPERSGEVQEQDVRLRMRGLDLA

Substance: 14-3-3 sigma (from UniProt P31947)
- Kd: 45.6 µM
